{"source": "patent US20210244857A1", "about": "“PEPTIDE-COATED CALCIUM PHOSPHATE PARTICLES” (Cerapedics, Inc., priority 2016, published 2021)", "key": {"[1]": {"assay": "P-15 bound to ABM particles after pretreatment, coating and washing (ELISA), effect of osmolarity", "type": "physicochemical", "details": "Hepes buffer pH 7.2, Porcine Cancellous Run #1", "experimental": "(§1) ABM particles were incubated in a buffered solution that contained varying amounts of NaCl to modulate the final osmolarity. The ABM particles were incubated in the solutions for 18-24 hours, rinsed a second time in the same buffer, and dried. The pre-treated surface modified ABM particles were then incubated with P-15 dissolved in the same buffer as used during the pre-treatment step to coat the particles with P-15 peptide. Following the P-15 coating step, the ABM particles were washed repeatedly with the corresponding buffer solution. The amount of bound P-15 was determined using an ELISA test method. The different runs represent different preparations of the same ABM source."}, "[2]": {"assay": "P-15 bound to ABM particles after pretreatment, coating and washing (ELISA), effect of osmolarity", "type": "physicochemical, Bovine", "details": "Hepes buffer pH 7.2", "experimental": "as §1"}, "[3]": {"assay": "P-15 bound on final washed ABM particles, effect of pretreatment and freezing/drying technique", "type": "physicochemical", "experimental": "Step 1: PRETREATMENT—ABM is pretreated in a Hypertonic (˜460 mM NaCl) HEPES buffer, pH 7.2, at a 10:1 ratio (ml solution to g ABM) for 24 hours. This solution is decanted off after 24 hours. This wash is repeated with fresh solution for 1 hour or until there is no pH change upon exposure to fresh solution. The final wash solution is decanted and the ABM is vacuum dried. The pretreatment step is performed with agitation of some kind (roller, rotation, etc.).\nStep 2: COATING—A P-15 coating buffer (concentration depends on final desired P-15 coated on ABM) is made using hypertonic HEPES, pH 7.2. Pretreated ABM is coated using a 2:1 ratio (mL solution to g ABM) for 24 hours. This step is performed statically, with no agitation.\nStep 3: WASHING—After the 24 hour coating step, the solution is removed by a rapid vacuum filtration process. The coated ABM is washed 6-12 times in a 10:1 ratio of solution to ABM using hypertonic HEPES buffer, pH 7.2. Vacuum filtration is performed between each wash to remove the solution. After the final wash, the washed ABM is then vacuum dried overnight.\nABM particles are produced as described in step 1 of Example 1, where step 1 further includes freezing and then drying the ABM particles subjected to hypertonic buffer.\nPaired samples of pretreated ABM particles were freeze-dried (F/D) by two different methods, and a third sample was simply air dried (without any freezing). One sample was placed on a controlled ambient temperature F/D shelf and a vacuum was immediately pulled to initiate rapid evaporative freezing (FD-EC). The second sample was placed on an ambient F/D shelf and slowly frozen by ramped freezing (˜1-2° C. per minute). Once the sample was frozen the vacuum was initiated; this process is considered standard freeze-drying. The F/D process was used for both (a) the pretreatment step 1 and the washing (post-coating) step 3. The third samples was not frozen; the water was removed from the sample by air-drying at both drying steps. The following table indicates the amount of bound P15 on the final washed product. Table 4 indicates the amount of bound P-15 on the final washed ABM particles.\nPaired samples of pretreated ABM particles were F/D by two different methods. One sample was placed on a controlled ambient temperature F/D shelf and a vacuum was immediately pulled to initiate rapid evaporative freezing. The second sample was placed on an uncooled shelf and a vacuum was immediately pulled to initiate evaporative cooling (vacuum oven drying). It should be noted that the rate of cooling is slower for this process due to the shelf temperature and the strength of vacuum. The F/D process was used for both (a) the pretreatment step 1 and the washing (post-coating) step 3. Table 5 indicates the amount of bound P-15 on the final washed ABM particles.\nFour paired samples of pretreated ABM particles were F/D by two methods, alternately performed at the two separate drying steps. Two samples were F/D by vacuum oven drying after the pretreatment step and then dried by either the vacuum oven drying process or by FD-EC (placed on a controlled ambient temperature F/D shelf and a vacuum was immediately pulled to initiate rapid evaporative freezing) method after the P-15 coating step. The other two samples were dried by FD-EC after the pretreatment step and then dried by either the vacuum oven drying process or by FD-EC method after the P-15 coating Table 6 table indicates the amount of bound P-15 on the final washed ABM particles.\nPaired samples of pretreated ABM particles were F/D by two different methods. One sample was rapidly frozen using a blast-freezer. The frozen sample was placed on a cold F/D shelf and a vacuum was immediately pulled. The second samples was placed on an uncooled shelf and a vacuum was immediately pulled to initiate evaporative cooling. The F/D process was used for both (a) the pretreatment step 1 and the washing (post-coating) step 3. […]"}}, "note": "Ends that are not written are not given here."}
{"sequence": "GTPGPQGIAGQRGVV [P-15, cell adhesion (collagen mimetic) peptide coated onto ABM particles]", "values": [{"measurement": "P-15 Concentration Bound to ABM Particles", "setting": "[1]; Hypertonic Solution (2.7%saline)", "result": 376, "unit": "ng ng-P-15/g-ABM"}, {"measurement": "P-15 Concentration Bound to ABM Particles", "setting": "[1]; Hypotonic Solution (0% saline)", "result": 231, "unit": "ng ng-P-15/g-ABM"}, {"measurement": "P-15 Concentration Bound to ABM Particles", "setting": "[1]; Isotonic Solution (0.9% saline)", "result": 283, "unit": "ng ng-P-15/g-ABM"}, {"measurement": "P-15 Concentration Bound to ABM Particles", "setting": "[2]; Hypertonic Solution (2.7%saline), Bovine Cancellous Run #1", "result": 149, "unit": "ng-P-15/g-ABM"}, {"measurement": "P-15 Concentration Bound to ABM Particles", "setting": "[2]; Hypertonic Solution (2.7%saline), Bovine Cancellous Run #2", "result": 1024, "unit": "ng-P-15/g-ABM"}, {"measurement": "P-15 Concentration Bound to ABM Particles", "setting": "[2]; Hypertonic Solution (2.7%saline), Bovine Cortical Run #1", "result": 153, "unit": "ng ng-P-15/g-ABM"}, {"measurement": "P-15 Concentration Bound to ABM Particles", "setting": "[2]; Hypertonic Solution (2.7%saline), Bovine Cortical Run #2", "result": 105, "unit": "ng-P-15/g-ABM"}, {"measurement": "P-15 Concentration Bound to ABM Particles", "setting": "[2]; Hypotonic Solution (0% saline), Bovine Cancellous Run #1", "result": 68, "unit": "ng-P-15/g-ABM"}, {"measurement": "P-15 Concentration Bound to ABM Particles", "setting": "[2]; Hypotonic Solution (0% saline), Bovine Cancellous Run #2", "result": 651, "unit": "ng-P-15/g-ABM"}, {"measurement": "P-15 Concentration Bound to ABM Particles", "setting": "[2]; Hypotonic Solution (0% saline), Bovine Cortical Run #1", "result": 105, "unit": "ng ng-P-15/g-ABM"}, {"measurement": "P-15 Concentration Bound to ABM Particles", "setting": "[2]; Hypotonic Solution (0% saline), Bovine Cortical Run #2", "result": 64, "unit": "ng-P-15/g-ABM"}, {"measurement": "P-15 Concentration Bound to ABM Particles", "setting": "[2]; Isotonic Solution (0.9% saline), Bovine Cancellous Run #1", "result": 129, "unit": "ng-P-15/g-ABM"}, {"measurement": "P-15 Concentration Bound to ABM Particles", "setting": "[2]; Isotonic Solution (0.9% saline), Bovine Cancellous Run #2", "result": 611, "unit": "ng-P-15/g-ABM"}, {"measurement": "P-15 Concentration Bound to ABM Particles", "setting": "[2]; Isotonic Solution (0.9% saline), Bovine Cortical Run #1", "result": 116, "unit": "ng ng-P-15/g-ABM"}, {"measurement": "P-15 Concentration Bound to ABM Particles", "setting": "[2]; Isotonic Solution (0.9% saline), Bovine Cortical Run #2", "result": 66, "unit": "ng-P-15/g-ABM"}, {"measurement": "P-15 ng/g ABM", "setting": "[3]; Table 4, Air drying at both drying steps, no freezing", "result": 74, "unit": "ng/g ABM"}, {"measurement": "P-15 ng/g ABM", "setting": "[3]; Table 4, Rapid freeze in freeze-dryer at pretreatment and post-coating steps", "result": 1521, "unit": "ng/g ABM"}, {"measurement": "P-15 ng/g ABM", "setting": "[3]; Table 4, Slow freeze in freeze-dryer at pretreatment and post-coating steps", "result": 366, "unit": "ng/g ABM"}, {"measurement": "P-15 ng/g ABM", "setting": "[3]; Table 5, Intermediate freeze in vacuum oven", "result": 308, "unit": "ng/g ABM"}, {"measurement": "P-15 ng/g ABM", "setting": "[3]; Table 5, Rapid freeze in freeze-dryer", "result": 4201, "unit": "ng/g ABM"}, {"measurement": "P-15 ng/g ABM", "setting": "[3]; Table 6, Pretreatment Step FD-EC, P-15 Coating Step FD-EC", "result": 351, "unit": "ng/g ABM"}, {"measurement": "P-15 ng/g ABM", "setting": "[3]; Table 6, Pretreatment Step FD-EC, P-15 Coating Step Vacuum oven", "result": 261, "unit": "ng/g ABM"}, {"measurement": "P-15 ng/g ABM", "setting": "[3]; Table 6, Pretreatment Step Vacuum oven, P-15 Coating Step FD-EC", "result": 77, "unit": "ng/g ABM"}, {"measurement": "P-15 ng/g ABM", "setting": "[3]; Table 6, Pretreatment Step Vacuum oven, P-15 Coating Step Vacuum oven", "result": 72, "unit": "ng/g ABM"}, {"measurement": "P-15 ng/g ABM", "setting": "[3]; Table 7, Blast-freeze followed by standard freeze-dryer", "result": 260, "unit": "ng/g ABM"}, {"measurement": "P-15 ng/g ABM", "setting": "[3]; Table 7, Intermediate freeze in vacuum oven", "result": 80, "unit": "ng/g ABM"}]}
